The labels stand for the following.
B3: αB-crystallin core domain (αBDom) 68-153 (protein)
chain: MRLEKDRFSVNLDVKHFSPEELKVKVLGDVIEVHGKHEERQDEHGFISREFHRKYRIPADVDPLTITSSLSSDGVLTVNGPRKQVS

Assay in all cases: ion-mobility native mass spectrometry titration
For series [1], the target named is T1, αBExt C-terminal peptide, second binding (Homo sapiens, not fully specified; dimer with one αBExt peptide already bound).
T1 chain: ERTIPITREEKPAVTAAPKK

In series [2] the target is T2, αBPal C-terminal peptide, second binding (Homo sapiens, not fully specified).
T2 chain: ERTIPITRE

The target of series [3] is B3.
Series [4] concerns the molecule itself.
The target of series [5] is T3, αBPal C-terminal peptide, first binding (Homo sapiens).
T3 chain: ERTIPITRE

Series [6] addresses T4, αBExt C-terminal peptide, first binding (Homo sapiens).
T4 chain: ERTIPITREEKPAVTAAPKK

These results are taken from paper PMC3638394 (2013).

Where no end group is shown, it is not given here.

B1: αB-crystallin core domain (αBDom) dimer 68-153 (protein)
chain: MRLEKDRFSVNLDVKHFSPEELKVKVLGDVIEVHGKHEERQDEHGFISREFHRKYRIPADVDPLTITSSLSSDGVLTVNGPRKQVS
B1: the Kd (usually the constant that tells how readily two partners part at equilibrium) in series [1] came to 300 µM; in series [2], 150 µM.

B2: αB-crystallin core domain (αBDom) 68-153 (protein)
chain: MRLEKDRFSVNLDVKHFSPEELKVKVLGDVIEVHGKHEERQDEHGFISREFHRKYRIPADVDPLTITSSLSSDGVLTVNGPRKQVS
modifications: both subunits bound to αBPal peptide
Molecule B2 gave a Kd in series [3] of 4 µM.
Consider B3, for which the results for the Kd in series [4], in series [5] and in series [6] were around 2 µM, around 70 µM and around 70 µM, respectively.

B4: αB-crystallin core domain (αBDom) 68-153 (protein)
chain: MRLEKDRFSVNLDVKHFSPEELKVKVLGDVIEVHGKHEERQDEHGFISREFHRKYRIPADVDPLTITSSLSSDGVLTVNGPRKQVS
modifications: both subunits bound to αBExt peptide
In series [3], B4 showed a Kd of 6 µM.
